Measurements taken from paper PMC4012986, “The Dimerization Domain in DapE Enzymes Is required for Catalysis” (PLoS ONE, 2014).

B1: N-succinyl-L,L-diaminopimelic acid desuccinylase (DapE) from Haemophilus influenzae, wild type, full length (enzyme)
chain: MKEKVVSLAQDLIRRPSISPNDEGCQQIIAERLEKLGFQIEWMPFNDTLNLWAKHGTSEPVIAFAGHTDVVPTGDENQWSSPPFSAEIIDGMLYGRGAADMKGSLAAMIVAAEEYVKANPNHKGTIALLITSDEEATAKDGTIHVVETLMARDEKITYCMVGEPSSAKNLGDVVKNGRRGSITGNLYIQGIQGHVAYPHLAENPIHKAALFLQELTTYQWDKGNEFFPPTSLQIANIHAGTGSNNVIPAELYIQFNLRYCTEVTDEIIKQKVAEMLEKHNLKYRIEWNLSGKPFLTKPGKLLDSITSAIEETIGITPKAETGGGTSDGRFIALMGAEVVEFGPLNSTIHKVNECVSVEDLGKCGEIYHKMLVNLLDS
notes: also called HiDapE; WT-HiDapE; source: E. coli BL21(DE3) derivative with pMAGIC; purification of the wild type not described

Key:
[1] = tested on: N[C@@H](CCC[C@H](NC(=O)CCC(=O)O)C(=O)O)C(=O)O; experiment: purified protein; details: 50 mM phosphate pH 7.5, 25 °C, two equivalents Zn(II)
purified protein = substrate: N[C@@H](CCC[C@H](NC(=O)CCC(=O)O)C(=O)O)C(=O)O; experiment: purified protein; details: 50 mM phosphate pH 7.5, 25 °C, two equivalents Zn(II); remark: listed apart in the source
[2] = target: the molecule itself; experiment: dynamic light scattering; DynaPro-801, 21°C; 2.0 mg/ml in crystallization buffer (250 mM NaCl, 20 mM HEPES pH 8.0, 1 mM TCEP)

Molecule	Km [1]	kcat [1]	Km (purified protein)	kcat (purified protein)	binding result [2]
WT-VcDapE (Vibrio cholerae O1 biovar El Tor str. N16961)	1200 ± 200 µM	80 ± 10 s⁻¹	–	–	–
B1	–	–	800 ± 100 µM	114 ± 10 s⁻¹	binds
